Non-standard residues stand in square brackets, D forms with d. No end group written: not given here. hArg = N=C(N)NCCCC[C@H](N)C(=O)O; Ac5c = NC1(C(=O)O)CCCC1; Deg = CCC(N)(CC)C(=O)O; Ac3c = NC1(C(=O)O)CC1; Aib = CC(C)(N)C(=O)O
Legend:
[1] = molecular target: T1, recombinant P1R chimera expressed in HKRK-B28 cells (opossum P1R from the N-terminus to the mid region of … (opossum; rat, UniProt P25107 27-288; P25961 295-591, limits assumed); test: competition binding on B28 cells against 125I-PTH(1-21) tracer (SEQ ID NO 36)
T1 construct: domain: N-terminus to the mid region of TM3;domain: mid region of TM3 to the C-terminus; also called PTH-1 receptor; receptor of HKRK-B28 cells
T1 sequence (P25107 other isoform, or with tags, fused parts or gaps limits assumed): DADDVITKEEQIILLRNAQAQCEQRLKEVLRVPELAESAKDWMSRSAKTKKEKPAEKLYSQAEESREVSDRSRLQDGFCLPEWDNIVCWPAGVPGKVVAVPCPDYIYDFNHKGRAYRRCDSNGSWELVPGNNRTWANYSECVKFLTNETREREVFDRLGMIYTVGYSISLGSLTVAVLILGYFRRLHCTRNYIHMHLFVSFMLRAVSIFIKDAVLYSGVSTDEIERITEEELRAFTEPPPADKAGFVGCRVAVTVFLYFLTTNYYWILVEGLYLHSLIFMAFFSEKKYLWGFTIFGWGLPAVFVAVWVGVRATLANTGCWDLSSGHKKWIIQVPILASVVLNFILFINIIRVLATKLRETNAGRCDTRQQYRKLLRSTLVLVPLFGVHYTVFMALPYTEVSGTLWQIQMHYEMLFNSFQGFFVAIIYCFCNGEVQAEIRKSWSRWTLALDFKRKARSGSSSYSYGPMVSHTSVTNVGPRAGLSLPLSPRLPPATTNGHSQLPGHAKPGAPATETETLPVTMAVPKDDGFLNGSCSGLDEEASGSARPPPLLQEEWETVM
Experimental: (§1) Competition Binding. Binding reactions were performed with HKRK-B28 cells or in COS-7 cells in 24-well plates. The cells were rinsed with 0.5 mL of binding buffer, and then treated successively with 100 μL binding buffer, 100 μL of binding buffer containing various amounts of unlabeled competitor ligand, and 100 μL of binding buffer containing ca. 100,000 cpm of ¹²⁵I-[Aib^{1,3},Nle⁸,Gln¹⁰,Har¹¹,Ala¹²,Trp¹⁴,Arg¹⁹,Tyr²¹]rPTH(1-21) (SEQ. ID. NO. 36) (ca. 26 fmol; final volume=300 μL). Incubations were 4 to 6 h at 4° C., at which time near equilibrium conditions were attained. Cells were then placed on ice, the binding medium was removed, and the monolayer was rinsed three times with 0.5 mL of cold binding buffer. The cells were subsequently lysed with 0.5 mL 5N NaOH and counted for radioactivity. For each tracer and in each experiment, the non-specific binding was determined as the radioactivity that bound in the presence of the same unlabeled peptide at a concentration of 1 μM, and was ˜1% of total radioactivity added for each tracer. The maximum specific binding (B₀) was the total radioactivity bound in the absence of competing ligand, corrected for nonspecific binding, and for each tracer, ranged from 8% to 20% of the total radioactivity added. Nonlinear regression was used to calculate binding IC₅₀ values (see below). Scatchard transformations of homologous competition binding data derived from studies with 26 fmol of ¹²⁵I-[Aib^{1,3},Nle⁸,Gln¹⁰,Har¹¹,Ala¹²,Trp¹⁴, Arg¹⁹,Tyr²¹]rPTH(1-21) (SEQ. ID. NO. 36) were employed for estimations of apparent equilibrium dissociation constant (kDapps) and total number of ligand binding sites (Bₘₐₓ), assuming a single class of binding sites and equal affinities of the iodinated and non iodinated ligand.

[2] = molecular target: T2, wild-type human P1R transiently expressed in COS-7 cells (human, UniProt Q03431 27-593); test: cell-based or functional assay
T2 sequence (looked up): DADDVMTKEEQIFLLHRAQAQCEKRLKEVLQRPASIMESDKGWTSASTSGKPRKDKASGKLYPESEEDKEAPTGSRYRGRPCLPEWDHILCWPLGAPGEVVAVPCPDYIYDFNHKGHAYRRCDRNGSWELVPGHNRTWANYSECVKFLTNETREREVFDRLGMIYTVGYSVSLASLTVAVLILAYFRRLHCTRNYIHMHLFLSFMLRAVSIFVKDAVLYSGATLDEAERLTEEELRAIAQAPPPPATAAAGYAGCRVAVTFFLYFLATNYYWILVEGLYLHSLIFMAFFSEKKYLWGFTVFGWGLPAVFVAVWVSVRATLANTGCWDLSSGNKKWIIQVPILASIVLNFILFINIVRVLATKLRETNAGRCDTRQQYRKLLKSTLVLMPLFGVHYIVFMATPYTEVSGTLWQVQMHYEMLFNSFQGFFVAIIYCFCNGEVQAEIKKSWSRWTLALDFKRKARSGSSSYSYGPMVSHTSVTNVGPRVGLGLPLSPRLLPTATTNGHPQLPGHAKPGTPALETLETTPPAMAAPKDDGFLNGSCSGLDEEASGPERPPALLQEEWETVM

[3] = molecular target: T1, recombinant P1R chimera expressed in …; test: cell-based or functional assay
[4] = molecular target: T3, P1R-delNt, a recombinant human PTH-1 receptor construct in which most of the amino-terminal extracellular … (human, UniProt Q03431 23-593, limits assumed); test: cell-based or functional assay
T3 sequence (looked up): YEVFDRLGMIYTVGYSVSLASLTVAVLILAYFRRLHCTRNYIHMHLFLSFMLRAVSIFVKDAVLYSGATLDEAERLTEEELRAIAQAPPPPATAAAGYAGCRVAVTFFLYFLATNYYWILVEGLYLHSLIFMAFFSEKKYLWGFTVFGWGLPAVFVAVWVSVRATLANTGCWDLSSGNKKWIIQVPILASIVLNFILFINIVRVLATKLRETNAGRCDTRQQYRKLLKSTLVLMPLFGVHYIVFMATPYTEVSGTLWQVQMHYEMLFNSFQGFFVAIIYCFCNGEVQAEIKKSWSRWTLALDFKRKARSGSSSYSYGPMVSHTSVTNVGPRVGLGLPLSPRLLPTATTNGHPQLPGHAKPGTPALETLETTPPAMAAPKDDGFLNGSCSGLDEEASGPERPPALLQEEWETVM

[5] = molecular target: T1, recombinant P1R chimera expressed in …; test: competition binding on HKRK-B28 cells against 125I-PTH(1-21) tracer (SEQ ID NO 36)
Experimental: as §1, with “Incubations” for “Competition Binding. Binding reactions were performed with HKRK-B28 cells or in COS-7 cells in 24-well plates. The cells were rinsed with 0.5 mL of binding buffer, and then treated successively with 100 μL binding buffer, 100 μL of binding buffer containing various amounts of unlabeled competitor ligand, and 100 μL of binding buffer containing ca. 100,000 cpm of ¹²⁵I-[Aib^{1,3},Nle⁸,Gln¹⁰,Har¹¹,Ala¹²,Trp¹⁴,Arg¹⁹,Tyr²¹]rPTH(1-21) (SEQ. ID. NO. 36) (ca. 26 fmol; final volume=300 μL). Incubations”, “ligand. […]” for “ligand.”

[6] = molecular target: T1, recombinant P1R chimera expressed in …; test: competition binding to the P1R (HKRK-B28 cells by the FIG. 3 legend)
Experimental: as §1, with “Scatchard transformations of homologous competition binding data derived from studies with 26 fmol of ¹²⁵I-[Aib^{1,3},Nle⁸,Gln¹⁰,Har¹¹,Ala¹²,Trp¹⁴, Arg¹⁹,Tyr²¹]rPTH(1-21) (SEQ. ID. NO. 36) were employed for estimations of apparent equilibrium dissociation constant (kDapps) and total number of ligand binding sites (Bₘₐₓ), assuming a single class of binding sites and equal affinities of the iodinated and non iodinated ligand.” left out

**Q.** Which IC50 [1] does the source give for [Ac5c]V[Aib]EIQLMHQ[hArg]AKW-NH2 (also called [Ac5c^1,Aib^3,M]PTH(1-14)) [[Ac5c^1,Aib^3,Gln^10,Har^11,Ala^12,Trp^14]PTH(1-14)NH2] here?
**A.** 100 nM

**Q.** And the “fold more potent than [Aib^1,3,M]PTH(1-14) for inhibiting tracer binding” value [1]?
**A.** 2 fold

**Q.** And the “stimulating phospholipase C, fold more potent than [Aib^1,3,M]PTH(1-14)” value [2]?
**A.** 2 fold

**Q.** What about the “cAMP potency (EC50)” value [3] of the same binder?
**A.** 0.9 nM

**Q.** And the “increase in cAMP levels relative to basal, peptide at 10 nM, HKRK-B28 cells” value [3]?
**A.** 38 fold

**Q.** What about the “stimulating adenylyl cyclase, fold more potent than [Aib^1,3,M]PTH(1-14)” value [3] of the same binder?
**A.** 2 fold

**Q.** And the “cAMP EC50 in LdelNt-2 cells” value [4]?
**A.** 6.4 nM

**Q.** And the “increase in cAMP accumulation in LdelNt-2 cells” value [4]?
**A.** 70 fold

B1: [M]PTH(1-14) analog in which alanine-3 is substituted with 1-aminocyclopropane-1-carboxylic acid (Ac3c) (peptide)
peptide: AV[Ac3c]EIQLMHQ[hArg]AKW-NH2
modifications: N-terminus assumed
SMILES: CC[C@H](C)[C@H](NC(=O)[C@H](CCC(=O)O)NC(=O)C1(NC(=O)[C@@H](NC(=O)[C@H](C)N)C(C)C)CC1)C(=O)N[C@@H](CCC(N)=O)C(=O)N[C@@H](CC(C)C)C(=O)N[C@@H](CCSC)C(=O)N[C@@H](Cc1c[nH]cn1)C(=O)N[C@@H](CCC(N)=O)C(=O)N[C@@H](CCCCNC(=N)N)C(=O)N[C@@H](C)C(=O)N[C@@H](CCCCN)C(=O)N[C@@H](Cc1c[nH]c2ccccc12)C(N)=O
notes: also called Ac3c^3-containing analog; Ac3c-3
**Q.** How did the “fold reduced affinity relative to the parent analog” value [5] turn out when B1 was run?
**A.** ~10 fold

**Q.** And the “fold lower affinity than [M]PTH(1-14)” value [1]?
**A.** 14 fold

**Q.** And the “cAMP-stimulating potency, fold increase over the parent analog” value [3]?
**A.** < 2 fold

**Q.** Which “fold higher affinity than the parent peptide” value [6] does the source give for [Ac5c]V[Ac5c]EIQLMHQ[hArg]AKW-NH2 (also called [Ac5c^1,3,M]PTH(1-14)) [[Ac5c^1,3,Gln^10,Har^11,Ala^12,Trp^14]PTH(1-14)NH2] here?
**A.** 20 fold

**Q.** What about the “cAMP signaling, fold more potent than the parent peptide” value [3] of the same binder?
**A.** 30 fold

B2: [Deg^1,3,Gln^10,Har^11,Ala^12,Trp^14]PTH(1-14)NH2 (peptide)
peptide: [Deg]V[Deg]EIQLMHQ[hArg]AKW-NH2
modifications: N-terminus assumed
SMILES: CC[C@H](C)[C@H](NC(=O)[C@H](CCC(=O)O)NC(=O)C(CC)(CC)NC(=O)[C@@H](NC(=O)C(N)(CC)CC)C(C)C)C(=O)N[C@@H](CCC(N)=O)C(=O)N[C@@H](CC(C)C)C(=O)N[C@@H](CCSC)C(=O)N[C@@H](Cc1c[nH]cn1)C(=O)N[C@@H](CCC(N)=O)C(=O)N[C@@H](CCCCNC(=N)N)C(=O)N[C@@H](C)C(=O)N[C@@H](CCCCN)C(=O)N[C@@H](Cc1c[nH]c2ccccc12)C(N)=O
notes: also called [Deg^1,3,M]PTH(1-14)
**Q.** What does the source list for B2?
**A.** fold higher affinity than the parent peptide [6]: 50 fold; cAMP EC50 in LdelNt-2 cells [4]: 1400 nM; cAMP Emax over basal in LdelNt-2 cells (partial agonist behavior) [4]: 23 fold

Source: patent US20070161569A1 (GENERAL HOSPITAL, published 2007)
